Consider 13 sequences from the DeepSol protein solubility set.

This series can be described thus: soluble on expression in E. coli; label from the status in PepcDB or PDB records.
Regarding “MSLGREKGLSTFLFLLLFSISLHAQRQDILLNNNWNFRFSHQVQGDTRRVDLPHTWNAQDALAGKIDYKRGIGNYEKALYIRPEWKGKRLFLRFDGVNSIADVFINRKHIGEHRGGYGAFIFEITDLVKYGEKNSVLVRANNGEQLDIMPLVGDFNFYGGIYRDVHLLITDETCISPLDYASPGVYLVQEVVSPQEAKVCAKVNLSNRAADGTAELQVLVTDGTKVICKESRNVSLKQGADILEQLPLLIQKPRLWNGCEDPFMYQVSISLHKDGKQIDSVTQPLGLRYYHTDPDKGFFLNGKHLPLHGVCRHQDRAEVGNALRPQHHEEDVALMREMGVNAIRLAHYPQATYMYDLMDKHGIVTWAEIPFVGPGGYADKGFVDQASFRENGKQQLIELIRQHYNHPSICFWGLFNELKEVGDNPVEYVKELNALAKQEDPTRPTTSASNQDGNLNFITENIAWNRYDGWYGSTPKTLATFLDRTHKKHPELRIGISEYGAGASIYHQQDSLKQPSASGWWHPENWQTYYHMENWKIIAERPFVWGTFVWNMFDFGAAHRTEGDRPGINDKGLVTFDRKVRKDAFYFYKANWNKQEPMIYLAEKRCRLRYQPEQTFMAFTTAPEAELFVNGVSCGKQKADTYSTVVWKNVKLTSGENIIRVTTPGKKPLTDEVTVEYKEDREGHHHHHH”, the “soluble on expression in E. coli” value is recorded as “not soluble”.

Turning to “MSLGRKIKKETMIFPRYHQLRAVRELEDAARTEGPGHNYLVEHSAGSGKSNTIGWLAHRLASLHNESDHKVFDSVIVITDRRVLDRQLQDTIYQFEHRQGVVQKIDEDSRQLAEALTNSVPIIISTLQKFPFVARQLARMAEERREGADGILPTRRCAVIIDEAHSSQSGETATDLKEVLGGHVLREEAARYAVDEGVDNLDELYRSMAKRGRQTNLSFFAFTATPKHKTLAVFGRDEAGKAGQPFHRYTMSQAIEEGFIMDVLKNYTTYATYYKLVKASEDDPNVERKQAAKALARFMRLHPYNIAQKTEVMVEHFNAVTRHKVGGKAKAMVVTGSRLEAVRYKLAFDAYIREKGYSWIKTLVAFSGEVVDDELPGKTWTEVGMNGGIKEGVLPEKFDSSEYQVLLVAEKYQTGYDQPLLHTMYVDKRLAGIQAVQTLSRLNRMHPLKEDTFVLDFVNDRQEIKEAFKQYHEGAEMGEEADPNQMYAIKAELDASGIYLLEEMQRFIGIYFKPKQRQSPADHQAMNAALDPAVDRFRAVQEEDEEQAELWRGKLSAFRNLYAFLSQVAPYQDSDLERLYTFLRFLSPKLPKRTTGQRYSFDDEVRLEYYRLQKISEGSISLRDGKAELLDGPGEVGSGARHDEDVPLSSLIDVINERFGTDFTDADQLFFDQIIEAAMEDGSLLEAAAVNPEEKFALLFAGLLETLFIERMEQNEDIFARFMNERDFQSLVSKWISGKVYARLREGHHHHHH”, the “soluble on expression in E. coli” value was “not soluble”.

Consider “MSLGRKQQYGTLASIAAKLGISRTTVSNAYNRPEQLSAELRQRILDTAEDMGYLGPDPVARSLRTRRAGAIGVLLTEDLTYAFEDMASVDFLAGVAQAAGDTQLTLIPASPASSVDHVSAQQLVNNAAVDGVVIYSVAKGDPHIDAIRARGLPAVIADQPAREEGMPFIAPNNRKAIAPAAQALIDAGHRKIGILSIRLDRANNDGEVTRERLENAQYQVQRDRVRGAMEVFIEAGIDPGTVPIMECWINNRQHNFEVAKELLETHPDLTAVLCTVDALAFGVLEYLKSVGKSAPADLSLTGFDGTHMALARDLTTVIQPNKLKGFKAGETLLKMIDKEYVEPEVELETSFHPGSTVAEGHHHHHH”, for which the “soluble on expression in E. coli” value is “soluble”.

With “MSLGRNPPPAIGQFWHVTDLHLDPTYHITDDHTKVCASSKGANASNPGPFGDVLCDSPYQLILSAFDFIKNSGQEASFMIWTGDSPPHVPVPELSTDTVINVITNMTTTIQSLFPNLQVFPALGNHDYWPQDQLPVVTSKVYNAVANLWKPWLDEEAISTLRKGGFYSQKVTTNPNLRIISLNTNLYYGPNIMTLNKTDPANQFEWLESTLNNSQQNKEKVYIIAHVPVGYLPSSQNITAMREYYNEKLIDIFQKYSDVIAGQFYGHTHRDSIMVLSDKKGSPVNSLFVAPAVTPVKSVLEKQTNNPGIRLFQYDPRDYKLLDMLQYYLNLTEANLKGESIWKLEYILTQTYDIEDLQPESLYGLAKQFTILDSKQFIKYYNYFFVSYDSSVTCDKTCKAFQICAIMNLDNISYADCLKQLYIKHNYEGHHHHHH”, the “soluble on expression in E. coli” value is “soluble”.

As to “MSLGSERWITVQLVGEIMGTSFERGISQYPNVNDEVHLVTESDLEAIHGVEEQGQVVVGRLASADGIPVKLDLDKMVTRHSAVLGSTGSGKSTTVASLLRSIVSGADGSDAGFPSSRILMLDIHGEYSHALSDVAKVFRISPEANQTQLHIPFWALDPNELLCFLMGRLDDKPLTAILDKVYEYKHDQAVAHPRAGLNVTSMTSDTPVPFSLKKLWLELLEPEVKTWEDTARSQPALLEAGNADNVTPPQYKPHGAGATPPFINQIGVLGIRRPLDQLRSRLLDKKYDFLLHPGDWEPDLDGNVTKDLDALLEEWLGHDKPITILDLSGVPSLVLEQLIGAILRILYEALFWGRDRSEGHHHHHH”, the “soluble on expression in E. coli” value was “soluble”.

As for “MSLGSSDLPAHALVGYLHASFANGSGYTRMADVPDSWDVIDLAFGEPTSVTSGDIRFERCPVAECPNVESDAEFKAAIKAKQAAGKKVLISIGGQNGQVQLTSTAARDKFVSSVSAIIDEYGLDGLDIDFEGHSLSLNADDTDFKNPKTPVIVNLVSAVKTLKAKYGDGFVLTMAPETFFVQLGYQYYGTGKWGGQDPRAGAYLPVIHALRDDLTLLHVQDYNSGSIMGLDNQYHSMGGADFHIAMTDMLLTGFPVAGDANNVFPPLRPDQVAIGMPASTQAGNGHVSPAEVTKALNCLTKKTDCGSYATHGTWPDLRGLMTWSINWDRYSNWEFQKNFDAYFGEGHHHHHH”, the “soluble on expression in E. coli” value is given as “soluble”.

In the case of “MSLGSVNRVYLARLSRMSVLGPLGESFGRVRDVVISISIVRQQPRVLGLVVDLATRRKIFIPILRVAAIEPHAVTLSTGNVSLHRFEQRPGEALALGQVLDTLVKVNDPALPELAGVDVVVTDLGVEQTRSRDWMVTRVAVRTQRRLRRRCPVHVVDWHNVAGLTPSALAMPGQDVAQLLDQFEGWKAVDVADAIRGLPPKRRHEVFKALHDKRLADVLQELPELDQAEVLSQLGTERAADVLEEMDPDDAADLLAVLNPTEAELLLTRMDPGDSGQVRRLLTHSPDTAGGLMTSDPVVLTPDTSIAEALARVRDPDLTPALASMVFVARPPTATPTGHYLGCVHLQRLLRDPPAELVGGVVDTDLLTLTPETPLAAVTRYFAAYNLVCGPVVDDENHLLGAVTVDDLLDHLLPHDWRVDMPELDPSGAPDRPGGPREGHHHHHH”, the “soluble on expression in E. coli” value is “soluble”.

Consider “MSLGYHTLEVTVGNEAETATVISAPEKIELLDDMKNGSLWGWMSQLYSIRSKGSWGVGDFEDLKTMLVEAKKKTGSDFMLINPMHAAEPVPPLTPSPYLPISRRFINFSYIRPESMPEYLTLSHEDRAEVDALHEQVESLNDDARLIDRDAMWRVKKHALWVIYKAGRTKARQAEFDRYLAECGDEIESYATWCLCYDKWGAPSDDADNWVRKYNRDSEEVAQLREKFPDTLEFYRWLEWVATDQLHAAQQAARKAGMKIGIVADMAVGVHPAGSDVWWNPERFAKGATVGAPPDMFNQQGQDWSQPPLNPIALEQTGFKVYRDMVHDMFANAGAVRIDHILGLFRLWWIPEGKPATDGTYVHYDSDVMLGILALEASRAGGVVVGEDLGVVPAYVSKSLSEHGILGCAVEWFEQMDGVFRTPKDWRPYALASVNTHDMPPAAGYLEYGHVKLREQLGLLSGPVEEFQKSATAEHNAMLNMLVEEGYLDKAALDDEAANENEIVDALYRGLKGSPCKLMAASIVDAVGEKRTQNQPGTNNEYPNWRIPLADGEGNVVPLEKLFDEPRLQEITAIMREGHHHHHH”, for which the “soluble on expression in E. coli” value is given as “not soluble”.

For the sequence “MSLHASAIESIETIIVDLPTIRPHKLAMHTMQNQTLVLIRLRCADGIEGLGESTTIGGLAYGNESPDSIKTNIDRFVAPLLIGQDASNINAAMLRLEQSIRGNTFAKSGIESALLDAQGKRLGLPVSELLGGRVRDALPVAWTLASGDTAKDIAEAQKMLDLRRHRIFKLKIGAGEVDRDLAHVIAIKKALGDSASVRVDVNQAWDEAVALRACRILGGNGIDLIEQPISRNNRAGMVRLNASSPAPIMADESIECVEDAFNLAREGAASVFALKIAKNGGPRATLRTAAIAEAAGIGLYGGTMLEGGIGTLASAHAFLTLNKLSWDTELFGPLLLTEDILAEPPVYRDFHLHVSKAPGLGLSLDEERLAFFRRDKTTPVLHHTEGHHHHHH”, the “soluble on expression in E. coli” value is recorded as “soluble”.

As for “MSLHDLLLRNVRPMAGEACDIMIRNGKITGFGKFDAEPGLPVEDGKGAIAVPGLIDAHTHLDKTTWGMPWHVNNRAAILRERIDFERENRVQIGIDPHRQSMRHAIGLAANGGTHIRSHVDIDPTHGLKLVEGIWETREKLDGIIDIEVVAFPQSGVMVMPGTVELLDEALKQGCEVLGGIDPCGIDRDPKGQLDILFQLATKHGVPIDIHLHEAADLGAFTMELIFERIRANGMQGNVAISHAFALGMNDYLRVGRLIDEIARLDVAILTTGAPSASVPSIMRLKEAGVRVGGGCDGIRDTWGPWGQPDMLDRAKIIGMKNGLRSDVELAHVLHVVSRGGADVMGIEDYGMEIGCAADFTLLTGETLAHAVVDITPRPLVVKGGRVTARNGKAIVEAPEGHHHHHH”, the “soluble on expression in E. coli” value is “not soluble”.

For the sequence “MSLHINQLLQHANSDLPLLQANFGLERESLRINKTNHRLAQTPHPTALGSRQFHPYIQTDYSESQMELITPVAHSSKEVLRFLGAITDVAERSIDQNQYLWPLSMPPQITEDEIEIAQLEDDFEFSYRQYLDKKYGKILQSISGIHYNMELGADLMNELFELSGYQSFIDFKNDLYLKVAQNFLNYRWFLTYLYGASPLAEKGFLNEELSQTVRSIRNSHLGYVNTDDIKVPFDSLENYISSIEHYVKSGALSAEKEFYSAVRLRGSKHNRDYLTKGITYLEFRCFDLNPFNNRGITQETIDSVHLFILAMLWLDTPKKLNQALDKAQKLNDKIALSHPLEKLPKENSASLIIEAMEALIKHFKLPSYYDDLLIAIKKQVENPKLTLSGRLFEHIKHASLEHFGQKKGQDYHNYAWQNYYALKGYENMELSTQMLLFDTIQKGIHFEILDENDQFLKLWHNDHIEYVKNGNMTSKDNYVIPLAMANKVVTKKILRENGYPVPAGAEFDNKDEALRYYSQIKNKPIVVKPKTTNFGLGISIFETAASHNDYEKALDIAFIEDYSVLVEEFIPGTEYRFFILDGKCEAVLLRVAANVVGDGHSTVRQLVAQKNRDPLRGREHRSPLEIIDLGDIELLMLQQEGYTLEDILPKGKKVNLRGNSNISTGGDSIDVTETMDPSYKQLAANMATAMGAWVCGVDLIIPDTNLKASKGKPNCTCIELNFNPSMYMHTYCYQGPGQVITGKILAKLFPEISTKIEGHHHHHH”, the “soluble on expression in E. coli” value is listed as “soluble”.

In the case of “MSLHISVMGELDSKADVDRLLESIDENCDCEIHLTFLDANVVPREIVEKIVKLKEHNKCKIFVLKAYLYSYFLSLGISCFLVKKKSILNKDFESKEKLSSQTFEPEKVEKFLWDIYDKYGFDFTEYRKDSIIRRIKISMLRYCMTNFDEFSHLALTDQDVFEQLFLDFSINTTNFFRDPEVFMFLREKVLLFLDSYSHIRIWCVGCSNGKEPYSLAIILKELGMLHKVQIYATDINPYVIEEAKNGLYSVSTINTDIANYKKSGGSKNFTDYFEVNGNYMKVKDDFKDNILFFQHSVIEKGILNEFQMILCRNVMIYFDIPLQKKVLRHFYNSLDSGGFLVMGKSEGMLLNNGYEYFADYNEKYSVYRRKEGHHHHHH”, the “soluble on expression in E. coli” value is on record as “soluble”.

“MSLHLSNVILHQLCKNDQDELVVKLRPASLENDASTENLVAELHRVFHSKAGKGFGSFQSDSEFQFWLQEMRKGERDFYDFSQISANRLKEELIKYPFADEGILVFAEYQSLATDYLFIGILPMNQSLKVTEGLDISATDYLDITKMDIAARIDLSSYETDKESNRYLQYIKGRVGRKVADFFLDFLQADIGLDTKQQNLVLMQAVDDFCADSKLEKQEVNEYKKQVYNYCNEQIKSGEEVQISELSGELPPSQDGTSFMDFTKEQGYELEESFPGDRSTVRKLTKYVGAGGGLNISFDSLLLGERIFYDPETDTLTIKGTLEHHHHHH”: the “soluble on expression in E. coli” value is “not soluble”.
